Laboratory results published in the DeepSol protein solubility set.

Test: soluble on expression in E. coli; label from the status in PepcDB or PDB records

Sequence	soluble on expression in E. coli
MGHHHHHHSHMAKAITGVVCYACRIASTLLLYQELMRKGIRWLIELIKDDYNETVHKKTEVVITLDFCIRNIEKTVKVYEKLMKINLEAAELGEISDIHTKLLRLSSSQGTIETSLQDIDSRLSPGGSLADAWAHQEGTHPKDRNVEKLQVLLNCMTEIYYQFKKDKAERRLAYNEEQIHKFDKQKLYYHATKAMTHFTDECVKKYEAFLNKSEEWIRKMLHLRKQLLSLTNQCFDIEEEVSKYQEYTNELQETLPQKMFTASSGIKHTMTPIYPSSNTLVEMTLGMKKLKEEMEGVVKELAENNHILERFGSLTMDGGLRNVDCL	not soluble
AHHHHHHGSLVITPRRLHLGIIDPTGSLGRRFGSLGVALEGGYEIRITPADSLKIEAEKEDKETIKETIEKLNFEYDTGFGFYIEVRKSIPRHIGLGSTTQLTLGIAMGILKLLHKDVPVEEVAKILGRGKNSGVGIYAFKYGGFVVDGGVKDSVPPLLVRKDFPEDWAFLLVIPQVKRGFDEKEEQKIMEKPFGSASIAKEISYRILLGLLPALAEKNIEEFGRYLSTIQTLVGSSFSDFQGGEFREDIRLIVEFLNEITYGAGQSSWGPTVYGLIKRAEYQRVASRVAEFLDEQGIKAKIELGIPRNRGAEVKGESLFLERLIKSVSQ	soluble
MFLEECKTHFNTDCLYELLGVKKDCDEKALKKGYYRQSMRWHPDKSNLVEEDMQTYTTKFQLLNKAYQILSDEEKRKIYDETGSVDDEAGELNEDALKAWRMIFKKVTKEDIDSFMKTYQGSREQKDELVVHYEKFNGDIAKIREYAIGFDGVEELKEALDKLIDDGEIEKTKKYETSTSDKKMKAYKRKAEKEAIEVENMTQNNSDLVALIQGRQKERGTSFLDSLAAKYAPSSSKKAKRQ	not soluble
AIAEAAVDWYDFWNYYYLGKYQAANDVCTTLLEPNQWPRSVLLAVIRLRLALRDLEGIRALRNLVNDTWTSSVIHELIETLQKNVPPIDDGERLRSVVFGDGSALDAVDEAGRLLAALALQRAGLYLDALETLPLSRCENDAESRACRICLWLHLNRLDRAQLEQQALEHWFERQLADGDQRAVGTLVQLSRATLAVASNDAEDVAIEAALRSCRDLAERYGPSTKLLNLTYLCLVRLGRTEASESTLQQAMNLDAQDPDTMANTAASAAKTSMMMMAFPEAATATQRPIEYLRKYAPWHPWIRAQDDFERKLRGLAT	soluble
MIPKVIHYFWFGRGKKNDVIERCMDSWKVHLPDYEIKEWNEDNFNVHINNFTLQAYQMKKWAFVSDYARLHILYHYGGIYLDTDLEITNSLDPFLDYEGFMGFFSNFDISGGIIGAAKGNKFIKKLLTYYENKNFIDGNGKIDEKTNVEIITEISKKHFGFVGENQTQQILDMTIFPKEYFTVRDVNVKNYAIHHYNASWLSHEEMNKHLKSYRKYYEFTVKWLDNLINNKIDLTPYKNKCIAIFGKGYIGELLVSYLQNNNVPIRQIIDTKFANDTYKDIPIVSSDTISDEVNLIIITPIHSFESIYLSLKEKSCADIISIENLLS	soluble
MGKHEKGSSKDLANRTKSKGLQKLKFFCQMCQKQCRDANGFKCHLTSEAHQRQLLLFAENSNSYLRQFSNDFEKNFMQLLRTSYGTKRVRANEVYNAFIKDKGHVHMNSTVWHSLTGFVQYLGSSGKCKIDEGDKGWYIAYIDQEALIRKEEDQRKQQQEKDDEERHMQIMDGMVQRGKELAGDDEHEYEATELIRDTPDQKIQLDLNLGILDRKLDVKSGVASAKISIFDMPKVKKEDPDEPGPSQPSRKSGKKRSRSRSPAAKKFSKKSALDEIKEMEERKKERKNRKDYWMREGIVVKVITKSLGSEYYKAKGVVRKVVDDYTAQVKLDDGTVVKLDQEHVETVIPSLGRQMMIVNGAYRGQEATLESIDEKRFSLRLKIASGPTRGRQIDVPYEDASKLA	not soluble
MESSVDEEALHQLYLWVDNIPLSRPKRNLSRDFSDGVLVAELIKFYFPKMVEMHNYVPANSLQQKLSNWGHLNRKVLNKLNFSVPDDVMRKIAQCSPGVVELVLIPLRQRLEERQRRQKLGVGSLQELAPQDSSGYMDMGLPQKVRGEGAPALGEQLREGRPLASRPPGYNQALQGDPSFVLQIAEKEQELLASQETVQVLQMKVKRLEHLLQLKNVRIDDLSRRLQQAERKQR	soluble
MGSDKIHHHHHHMSQFVVDSSFWSLFPDAKIGVLLLKDYKTPAQSPDELVKLLEESNGIAQKFLTEDTFSENEVIRTYRQAYQKFKTKKGARSSIEALLKRSTSDRPVTTISPLVDIYNAASLRFGLPCGAEDLDTFVGNLQLTVTEGGDEFYLIGDETNNPTLPGEVCYKDDKGAVCRCFNWRDGERTMITDETKNAFLVMELVNSDRVEDLENALDFISQQAETFLGVVPEKYLLDCDRPGIAL	not soluble
MASEHFDMWESRFSADGYLFGTAPNAFLASCHDLLPKQGRALAIADGEGRNGVFLAECGLSVLSVDFSPTAQAKAHKLAAERGVTIETRTADLLSWQWPGGFDVIAGIFFQFVEPEQRPQIFQQIRAALKPGALLLIEGYRPKQLAYKTGGPSRAENLYTRELLEQAFGDFDNLSIRERDSEIVEGAGHAGLSALIDLIGWKPKLEHHHHHH	not soluble
AEASADLRADAMAKDRSEEERTTEAEKNERVQKHLKALTSELANARDESKKTANDMIHAENMRLGRDKYKTLRQIRQGNTKQRIDEFESM	soluble
MGSDKIHHHHHHMTRVVIIGGSGHVGTYLVPRLVEAGYEVVNVSRGQRAAYTLNAAWKSVEPVVIDRDTEEKAGTFGEKVRALKADIVVDMISFTLDSTKQIVGALRGEVQHFLHCGTIWVYGHNTAIPATEDQPKNPFGSYGTQKAEIESWLLNEARRNGFPATVFRPGHIVGPGWEPLNPAGHFDVGVFSQIARGEPLVLPNLGNETVHHVHADDVAQMVMRAIVSWSNAVGEAFNTVSPQAINLRGYAEALYNWFGHAPRLSYEPFDTWKGKQTEENWRATWEHIARSPSHSIAKARNLLGYDPRYSSLQAVYESVEWLVANGKLSR	not soluble
MAQERPSCAVEPEHVQRLLLSSREAKKSAYCPYSRFPVGAALLTGDGRIFSGCNIENACYPLGVCAERTAIQKAISEGYKDFRAIAISSDLQEEFISPCGACRQVMREFGTDWAVYMTKPDGTFVVRTVQELLPASFGPEDLQKIQ	soluble
MGSDKIHHHHHHMILEALQYAATRAVTPKEFRPHVRYSVNLWARANRCAKAWAEHENNSRQFVLQSAKKLKQRRTAVVLGSGLLRDVPHDALVAMFDTVVMVDLVHLASVQAKLRLNAKKNVRIANRDLSGFDDLLAGRPAEPLDFLRRVPYLDFVVSANLLSQIGTGAQHRLEREKIANVPGDLLPKLIQTHLDALAGLPCKVCLVTDTAFDVIGKDGSVQQHEDLLHGIEIASPAAAWDWPLAPFGEESRDYRIVHHVIAREMT	not soluble
MGSDKIHHHHHHKRQVSGDESYLDAAPLAELHAPAGMILPITTGDYVIPVTKGSGAVGKALDIRPPAQPLALVSGARTQFSGDTATLLVENGRSSTLWPQVVSVIQAKNYPIEKRDDASQTLTTDWVNWNRLDEDEQYRGRYQISVKPQGYQQAVTVKLVNLEQAGKPVADAASLQRYSTEMMNVISAGLDKTATDAANAAQNRSAATMDVQSAADDTGLPMLVVRGPFNLVWQRLPAALEKVGMKVTDSTRSQGSMAVTYKPLSDSDWRDLGASDPGLASGDYKLQVGDLDNRSSLQFIDPKGHTLTQSQNDALVAVFQAAFNK	not soluble
MSLTLLKGRRKVDTIKVGILGYGLSGSVFHGPLLDVLDEYQISKIMTSRTEEVKRDFPDAEVVHELEEITNDPAIELVIVTTPSGLHYEHTMACIQAGKHVVMEKPMTATAEEGETLKRAADEKGVLLSVYHNRRWDNDFLTIKKLISEGSLEDINTYQVSYNRYRPEVQARWREKEGTATGTLYDLGSHIIDQTLHLFGMPKAVTANVMAQRENAETVDYFHLTLDYGKLQAILYGGSIVPANGPRYQIHGKDSSFIKYGIDGQEDALRAGRKPEDDSWGADVPEFYGKLTTIRGSDKKTETIPSVNGSYLTYYRKIAESIREGAALPVTAEEGINVIRIIEAAMESSKEKRTIMLEHEGHHHHHH	soluble
